Tests used:
[1] = target: T1, human ALK2-Q207E on cells (human, UniProt Q04771 21-509); assay: immunofluorescence (legend of FIG. 4)
T1 sequence: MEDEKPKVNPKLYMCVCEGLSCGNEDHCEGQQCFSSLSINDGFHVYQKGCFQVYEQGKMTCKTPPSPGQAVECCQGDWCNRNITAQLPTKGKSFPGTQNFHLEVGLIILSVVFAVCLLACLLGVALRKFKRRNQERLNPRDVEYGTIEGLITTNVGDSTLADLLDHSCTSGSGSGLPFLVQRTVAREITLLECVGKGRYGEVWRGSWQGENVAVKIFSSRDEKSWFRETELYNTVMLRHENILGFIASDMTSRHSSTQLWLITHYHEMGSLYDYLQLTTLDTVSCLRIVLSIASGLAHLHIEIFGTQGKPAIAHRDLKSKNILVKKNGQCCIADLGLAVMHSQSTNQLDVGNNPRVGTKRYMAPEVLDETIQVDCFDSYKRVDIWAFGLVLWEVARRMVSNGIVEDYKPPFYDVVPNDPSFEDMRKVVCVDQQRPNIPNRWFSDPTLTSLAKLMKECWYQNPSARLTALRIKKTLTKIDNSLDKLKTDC
Description: (§1) Mouse C2C12 cells were seeded into a 96-well plate (Greiner Bio-One) at 0.5×10³ cells/well, and cultured in 15% FBS-containing DMEM medium overnight under the conditions of 5% CO₂ at 37° C. On the following day, the C2C12 cells were transfected with each of a wild-type human ALK2 cDNA integrated into pcDEF3; pcDEF3/human ALK2-L196P, pcDEF3/human ALK2-P197_F198delinsL, pcDEF3/human ALK2-R202I, pcDEF3/human ALK2-R206H, pcDEF3/human ALK2-Q207E, pcDEF3/human ALK2-R258S, pcDEF3/human ALK2-G325A, pcDEF3/human ALK2-G328E, pcDEF3/human ALK2-G328R, pcDEF3/human ALK2-G328W, pcDEF3/human ALK2-G356D, and pcDEF3/human ALK2-R375P, which are variants identified in FOP; and pcDEF3 as a control, using Lipofectamine 2000 (Invitrogen), and further cultured overnight.
(§2) The C2C12 cells were fixed with 10% neutral formalin (Nacalai Tesque, Japan) for 20 minutes at room temperature, and then blocked with 10% goat normal serum for 30 minutes. After the blocking agent was removed, purified IgG diluted to 10 μg/mL with the blocking agent was added, and the cells were left for 1 hour at room temperature. After the cells were washed with PBS three times, Goat Alexa 594-conjugated anti-rat IgG (Invitrogen) diluted to 1:1000 with the blocking agent was added, and the cells were left for 1 hour at room temperature. After the cells were washed with PBS three times, the cells were fixed with 10% neutral formalin for 15 minutes at room temperature, and nuclear-stained with DAPI (LifeTechnologies). Fluorescent signals were analyzed with a fluorescence microscope BZ-9000 (Keyence).

[2] = target: T2, human ALK2-G325A on cells (human, UniProt Q04771 21-509); assay: immunofluorescence (legend of FIG. 4)
T2 sequence: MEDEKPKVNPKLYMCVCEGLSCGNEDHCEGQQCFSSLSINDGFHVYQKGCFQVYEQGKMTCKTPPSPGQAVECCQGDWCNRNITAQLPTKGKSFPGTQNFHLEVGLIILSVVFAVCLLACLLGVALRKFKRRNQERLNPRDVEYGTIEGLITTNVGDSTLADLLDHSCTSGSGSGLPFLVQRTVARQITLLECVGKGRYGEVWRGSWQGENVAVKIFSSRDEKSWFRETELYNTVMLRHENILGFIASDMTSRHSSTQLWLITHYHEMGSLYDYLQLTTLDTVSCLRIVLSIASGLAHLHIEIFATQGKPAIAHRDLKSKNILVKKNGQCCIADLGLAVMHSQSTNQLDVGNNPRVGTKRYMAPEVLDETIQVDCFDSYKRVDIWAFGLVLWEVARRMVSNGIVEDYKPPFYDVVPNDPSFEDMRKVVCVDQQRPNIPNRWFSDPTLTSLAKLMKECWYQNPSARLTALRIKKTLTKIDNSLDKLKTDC
Description: as §1, §2

[3] = target: T3, human ALK2(WT)-EGFP on cells (human, UniProt Q04771 21-509); assay: flow cytometry on transfected HEK293A cells, Alexa 647 anti-rat IgG (APC-A) against EGFP (FITC-A)
T3 construct: also called hALK2(WT)-EGFP; human ALK2-EGFP; not shown: EGFP fused to ALK2
T3 sequence: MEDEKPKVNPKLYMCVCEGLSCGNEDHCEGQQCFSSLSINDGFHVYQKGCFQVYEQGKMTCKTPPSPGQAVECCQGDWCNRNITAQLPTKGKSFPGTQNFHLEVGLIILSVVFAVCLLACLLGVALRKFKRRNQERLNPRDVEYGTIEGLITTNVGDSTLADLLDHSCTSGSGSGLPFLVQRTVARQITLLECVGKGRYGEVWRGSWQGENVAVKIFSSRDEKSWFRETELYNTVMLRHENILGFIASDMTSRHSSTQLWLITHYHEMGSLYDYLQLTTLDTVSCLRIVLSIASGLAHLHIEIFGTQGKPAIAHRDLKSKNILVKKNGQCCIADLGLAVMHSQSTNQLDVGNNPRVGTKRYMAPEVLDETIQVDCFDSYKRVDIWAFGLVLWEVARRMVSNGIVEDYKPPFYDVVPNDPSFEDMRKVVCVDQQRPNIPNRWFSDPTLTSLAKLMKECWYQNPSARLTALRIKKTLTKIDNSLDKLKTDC
Description: HEK293A cells were seeded into a 100-mm dish at 3×10⁴ cells/cm², and cultured overnight in 15% FBS-containing DMEM medium under the conditions of 5% CO₂ at 37° C. On the following day, the HEK293A cells were transfected with each of pcDEF3/mouse ALK2(WT)-EGFP, pcDEF3/human ALK2(WT)-EGFP, pcDEF3/human ALK2 (R206H)-EGFP, and pcDEF3, using Lipofectamine 2000 (Invitrogen), and further cultured overnight. On the following day, 100 μL each of the cell suspensions adjusted to 1×10⁶ cells/mL was dispensed into a 1.5-mL microfuge and centrifuged at 500 g for 5 minutes, and then the supernatant was removed. To the cells, 100 μL of purified IgG diluted to 1 μg/mL was added, and the cells were left for 30 minutes at 4° C. After the cells were washed with PBS three times, 100 μL of Alexa flour 647 Goat anti-Rat IgG (H+L) (Life Technologies) diluted to 1:200 was added, and the cells were further left for 30 minutes at 4° C. After the cells were washed with PBS three times, fluorescence was detected by a flow cytometer (FACS Aria II: BD Biosciences). The data was analyzed using BD Diva Software (BD Biosciences), and the intensity of EGFP expressed by the cells and the fluorescence intensity of stained Alexa flour 647 were plotted.

B1: rat anti-ALK2 monoclonal antibody A2-15A (antibody, V domains shown)
VH: EVQLVESGGGLVQPGRSLKLSCAASGFTFSHYYMAWVRQAPTKGLEWVASITNSGGSINYRDSVKGRFTISRDNAKSTLYLQMDSLRSEDTATYYCTREGGENYGGYPPFAYWGQGTLVTVSS
VL: DIVLTQSPALAVSLGQRATISCRANQGVSLSRYNLMHWYQQKPGQKPKLLIYRSSNLASGIPARFSGSGSGTDFTLTINPVQADDIATYYCQQSRESPFTFGAGTKLELKR
notes: Rat monoclonal IgG from a hybridoma; also called 15A6
B1: binds [1]; binds [2]; binds [3].

B2: rat anti-ALK2 monoclonal antibody A2-25C (antibody, V domains shown)
VH: EVQLVESGGGLVQPGGSLKLSCAASGFTFSYYAMSWVCQAPTKGLEWVASISRGGDNTYYRDTVKGRFTTSRDNAKNTLYLQMDSLRSEDTATYYCARLNYNNYFDYWGQGVMVTVSS
VL: DIQMTQSPASLSASLEEIVTITCQASQDIGNWLSWYQQKPGKSPQLLIYGATSLADGVPSRFSGSRSGTQYSLKISRLRVEDIGIYYCLQAYSAPFTFGSGTKLEIKR
notes: Rat monoclonal IgG from a hybridoma; also called 25C11
B2: binds [3].

B3: rat anti-ALK2 monoclonal antibody A2-11E (antibody, V domains shown)
VH: EVQLVETGGGLVQPGRSLKLSCVASGFTFSNYYMYWIRQAPGKGLEWISSINTDGGSTYYPDSVKGRFAISRDNAENTVYLQMNSLRSEDTATYYCAKSTPNIPLAYWGQGTLVTVSS
VL: DIQMTQSPSLLSASVGDRVTLSCKASQNIYKYLNWFQQKLGEAPKLLIYYSNSLQTGIPSRFSGSGSGTDFTLTISSLQPEDVAIYFCFQYSSGPTFGPGTKLELKR
notes: Rat monoclonal IgG from a hybridoma; also called 11E2
B3: binds [1]; binds [2]; binds [3].

B4: rat anti-ALK2 monoclonal antibody A2-27D (antibody, V domains shown)
VH: EVQLVESGGGLVQPGRSLKLSCLASGSTFSNYGMKWIRQAPGKGLEWVASISRSSTYIYYADTVKGRFTISRDNARNTLYLQMTSLRSEDTALYYCAAAISTPFYWYFDFWGPGTVVTVSS
VL: EIVLTQSPTTMAASPGEKVTLNCLASSSVSYMTWYQQKSGASPKLWIYGTSNLASGVPNRFSGSGSGTSYSLAISSMEAEDVATYYCLHLTSYPPYTFGAGTKLELKR
notes: Rat monoclonal IgG from a hybridoma; also called 27D11
B4: binds [3].

From patent US20220041738A1 (SAITAMA MEDICAL UNIVERSITY, published 2022)
